Laboratory results reported in the nanobody polyreactivity screen of Harvey et al. (2022).

Test: yeast display, Sf9 membrane polyspecificity reagent, FACS + sequencing; frameworks hold sequencing errors
Summary of the method: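 A nanobody's polyreactivity label depends on the gate it was sorted from. Yeast display cells were stained with 10% biotinylated, detergent-solubilized Sf9 membrane reagent for 1 hour at 4 °C, enriched on streptavidin microbeads and sorted by FACS. The low and high (top ~1%) gates were set on anti-HA fluorescence for expression and streptavidin fluorescence for reagent binding.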

Sequence | polyreactivity (PSR sort gate)
QVQLVESGGGLVQAGGSLRLSCAASGSTFIGYAMGWYRQAPGKERELVAAISRSDGSTYYADSVKGRFTISRDNAKNTVYLQMNSLKPEDTAVYYCNADYYRWYDYWGQGTQVTVSS | low polyreactivity
QVQLVESGGGLVQAGGSLRLSCPASGFIFSIYTMGWYRQAPGKERELVAAITRSGSSTYYADSVKGRFTISRDNAKNTVYLQMNSLKPEDTAVSYCNRLCFGQYQPFYGYWGQGTQVTVSS | high polyreactivity
QVQLVESGGGLVQAGGSLRLSCAASGRTFWYYGMGWYRQAPGKERELVAAISRSGGRTSYADSVKGRFTISRDNAKNTVYLQMNSLKPEDTAVYYCATDGYYRYGYWGQGTQVTVSS | high polyreactivity
QVQLVESGGGLVQAGGSLRLSCAASGIIFGWYAMGWYRKAPGKERELVAAISSGGRTNYADSVKGRFTISRDNAKNTVYLQMNSLKPEDTAVYYCAAAYIRGSRRYDYWGQGTQVTVSS | high polyreactivity
QVQLVESGGGLGQAGGSLRLSCAASGRIFRYNAMGWYRQAPGKERELVAAITGSGGSTYYADSVKGRFTISRDNAKNTVYLQMNSLKPEDTAVYYCNTYTYYSRMDYWGQGTQVTVSS | high polyreactivity
QVQLVESGGGLVQAGGSLRLSCAASGSTFTYYAMGWYRQAPGKEREFVATITYSGGSTYYADSVKGRFTISRDNAKNTVYLQMNSLKPEDTAVYYCAARVGRPSLVAAKYDYWGQGTQVTVSS | high polyreactivity
QVQLVESGGGLVQAGGSLRLSCAASGSIFYAYAMGWYRQAPGKEREFVAVISRGGITNYADSVKGRFTISRDNAKNTVYLQMNSLKPEDTAVYYCAAATSAWGYLRRYGYWGQGTQVTVSS | low polyreactivity
QVQLVESGGGLVQAGGSLRLSCAASGSSIYSYAMGWYRQEPGKERELVAAITTSGGSTYYADSVKGRFTISRDNAKNTDYLQMNSLKPEDTAVYYCNAYFIYEGGWYYKAQYDYWGQGTQVTVSS | low polyreactivity
QVQLVESGGGLVQAGGSLRLSCAASGITFVGNARGWYRQAPGKERELVAGIRGNGGSTYYADSVKGRFTISRDNAKNTVYLQMNSLKPEDTAVYYCAAAAYYADFDYWGQGTQVTVSS | low polyreactivity
QVQLVESGGGLVKAGGSLRLTCAASGSIFKIYSMGWYIQAPGKERELVATITWSTGTTYYADSVKGRFTISRDNAKNTVFLQMNSLKPEDTAVYYCATEPSWYHGFIDPRGYWGQATQVTVSS | low polyreactivity
QVQLEESGGGLVQAGGSLRLSSAASGFTFAFYAMGWYRQAPGKERELVAAISRRGGSTTYADSVKGRFTISRDNAKNTVYLQMNSLKPEDTAVYYCNAVSTRNPGPDYYYWGQGTQVNVSS | high polyreactivity
QVQLVESGGGLVQAGGSLRLSCAASGFTFDFYVMGWYRPAPGTERELVAANSWDGGTTYYADSVKGRFTISRDNAKNTVYLQLNSLKPEDTAVYYCAADDWVYVPTGAWYLYEYWGQGTQVTVSS | high polyreactivity
QVQLVESGGGLVQAGGSLRLSCAASGFTFQFYAMGWYRQAPGKESELVASIRSGVGTYYADSVKGRFTISRDNAKNTVYLQMYCVKPEDTAVYYCNAVYNRFSRSYDYWGQGTQVTVSS | high polyreactivity
QFQLEESGGGLVQAGGSLRLSCAASGPIFSYNAMGLSRQATGKERELVARINWSSGRTYYADSVKGRFTISRDNAKNTVYLQMNSLKPEDTAVYYCNRVSRGPVGGYYWGQGTQVTESS | high polyreactivity
QVQLVESGGGLVQAGGSLRISCAASGSIFHFNAMGWYRQAPGKERELVARISIGGGSTYYADSVKGRFTISRDNAKNTVYFQMKSLKPEDTAVYYCGVDGSPRYKYDYWGQGTQVNVSS | high polyreactivity
QVQLVESGGGLFQAGGSLRLSCAASGRIFSCYAMGWYRQAPGKERELVAAITVRGSTYYADSVKGSFTISRDNAKNTVYLQMNSLKPEDTAVYYCAAGGYPGTTYYGYDFWGQVTQVTVSS | low polyreactivity

Sequence | polyreactivity (PSR sort gate)
QVQLVESGGGLVQAGGSLRLSCAASGRTSYYYAMGWSRQAPGKERELVAAISRSGGRTYYADSVKGRFTISRDNAKNTVYLQMNSLKPEDTAVYYCAADPRSYDTGRMDYWGQGTQVTVSS | high polyreactivity
QVQLVESGGGLVQAGGSLRLSCAASGSTFTPNAMGWYRQAPGKERELVAASRYTGVGTYYADSVKGRFTISRDNAKNTVYLQMNSPKPEDTAVYYCNRVSRYYNYDYWGQGTQVTVSS | high polyreactivity
QVQLVESGGGLVQAGGSLRISCAASGSTFGEYALGWYRQAPGKERELVAVITSDDNTYYADSVKGRFTISRDNAKNTVYLQMNSLKPEDTAVYYCATDDRRRFKYWGQGTQVTVSS | high polyreactivity
QVQLVESGGGLVQPGGSLRLSCAASGATLRSNAMGWSRQAPGKERELVAGISSGGGTYYADSVKGRFTISRDNAKNTVYLQMNSLNTEDTAVYYCAKVVYFGWSVQYYYWGQGTQVNVSS | low polyreactivity
QVQLVESGGGLVQAGGSLRLSCAASGRIFVYNTMGWYRQAPGKERELVAAMSWSGVGTYYADSVKGRFTISRDKAKNTVYLQMNSLKPEDTAVYYCNAWIYYGYFIFDYWGQGTQVTVSS | high polyreactivity
QVQLVESGGGLVQAGGSLRLSCAASGIIFKIYAMGWYRQAPGKERELVAAISKRGASTYYADSVKGRFTISRDNAKNTVYLQMNSLKPEDTAVYYCAAYRQGSAYDYWGQGTQVTVSS | high polyreactivity
QVQLVESGGGLVQAGGSLRLSCAASGRIFYRNAMGWYRQAPGKERELVAAITWRGGSTYYADSVKGRFTISRDNAKNTVYLQMNSLKPEDTAVYYCNTRYGRIHWKANWPEYGYWGQGTQVTVSS | low polyreactivity
QVQLVESGGGLVQAGGSLRLSCAASGYIFDGNAMGLYRQAPGKERELVASISSGTSTYYADSVKGRFTISRDNAKNTVYLQMNSLKPEATAVYYCNAGVEFAASLYYSDNYDYWGQGTQVTVSS | low polyreactivity
QVQLVESGGGLDPAGGSLRLSCAASGITFSYYAMGWYRQAPGKERELVAAISSSGSTYYADSVKGRFTISRDNAKNTDYLQMNSLKPEDTAVYYCAAEIRYYEYDYWGQGTQVTVSS | low polyreactivity
QLQLVESGGGLVQAGGSLRLSCAASGSIFYQYVMGWYRQAPGKEREFVAAIRYTGVGTYYADSVKGRFTLSRDNAKYTVYLQMNSLKPEDTAVYYCAARSYNRRARYDYWGQGTQVNVSS | high polyreactivity
QVQLVESGGGLVQAGGSLRLSCAASGSTFYYYAMGWYRQAPGKERELVASINKIVGITDYADSVKGRFTISRDNAKNTGYLQRNSLTPEDTAVYYCAAHGRINPDVPRTDFFASEEDYWGQGTQVTVSS | low polyreactivity
QVQLVESGGGLVQAGGSLRLSCAASGRIFYINVMGWYRQAPGKERELVAGITWIGGSTYADSVKGRFTISRDNAKNTVYLQMNSLKPEVTAVYYCNADPDFTVYRYLWPEGVEYWGQGTQVTVSS | low polyreactivity
QVQLVESGGGLVQAGGSLRLSCAASGRIFGVYAMGWYRQAPGKDREFVASITRGGGRTYYADSVKGRFTISRDNAKNTVYLQMNSLKPEDTAVYYCNAVVNSYPYYYWGQGTQVTVSS | high polyreactivity
QVQLVESGGGLVQAGGSLRLSCAASGSTLVLNAMGWYRQAPGKERELVAAITISGDTTYYADSVKGRFTISRDNAKNTVYLQMNSLKPEDTAVYYCAAVVSTVDGMEYWGQGTQVTVSS | low polyreactivity
QVQLVESGGGLVQAGGSLRLSCAASGFTFWLYSMGWDRQAPGKEREFVAAISTSGGSTYADSVKGRFTISRDNAKNTVYLLMNSLKPEDTAVYYCAGVYTYPLGYYHYTYDYWGQGTQVTVSS | low polyreactivity
QVQLVESGGGLVQAGGSLRLSCAASGSTFTGYTMGWYRQAPGKERELVAAISRRGTSTYYADSVKGRFTISRDNAKNTVYLQMNSLKPEDTAVYYCAAYQGQKGYDYWGQGTQVTVSS | high polyreactivity
